± gives the uncertainty stated by the source.

Sequences and labels used below:
B1: Glucocorticoid receptor, residues 419 to 494; numbered along this chain, P04150 (parent)
chain: KLCLVCSDEASGCHYGVLTCGSCKVFFKRAVEGQHNYLCAGRNDCIIDKIRRKNCPACRYRKCLQAGMNLEARKTK

Variants of B1 are the subject of the series. The experiment in a line: abundance fitness (aPCA) (normalised: wild type 0, dead -1); higher = more abundant; growth selection in yeast, the domain comes from the species named. Conditions: Homo sapiens.
In the case of G33M, the abundance fitness is -0.052 ± 0.049.
G33C: the abundance fitness is -0.176 ± 0.065.
As for G33A, the abundance fitness was -0.063 ± 0.037.
As for G33R, the abundance fitness is -0.048 ± 0.03.
As for G33P, the abundance fitness was -0.265 ± 0.059.
As for F26T, the abundance fitness was -1.06 ± 0.18.
On to F26K, for which the abundance fitness was -0.929 ± 0.14.
As to F26M, the abundance fitness was -0.793 ± 0.14.
On to F26G, for which the abundance fitness was -1 ± 0.11.
For F26N, the abundance fitness was -0.714 ± 0.28.
Consider F26W, for which the abundance fitness is -0.462 ± 0.065.
To F26R belongs -0.758 ± 0.071.
Turning to F26D, the abundance fitness is -1.01 ± 0.26.
In the case of F26Y, the abundance fitness is -0.36 ± 0.12.
In the case of V25F, the abundance fitness is -0.005 ± 0.064.
For V25S the value was -0.017 ± 0.05; for V25I, 0.021 ± 0.075.
To V25M belongs -0.094 ± 0.067; to V25P, -0.614 ± 0.13.
Take V25Q: the abundance fitness was 0.015 ± 0.087.
To R29L belongs -0.017 ± 0.034.
To R29S belongs -0.056 ± 0.039.
As for R29G, the abundance fitness is -0.057 ± 0.034.
As to R29T, the abundance fitness was -0.029 ± 0.056.
In the case of R52G, the abundance fitness is -0.016 ± 0.039.
Consider R52V, for which the abundance fitness was -0.056 ± 0.036.
For the variant R52T, the abundance fitness is -0.129 ± 0.043.
Turning to P56L, the abundance fitness was -0.047 ± 0.034.
On to P56C, for which the abundance fitness was 0.052 ± 0.05.
In the case of P56G, the abundance fitness is -0.085 ± 0.031.
P56N: the abundance fitness came out at 0.013 ± 0.056.
To P56A belongs 0 ± 0.032; to N54H, 0.011 ± 0.067; to N54F, -0.061 ± 0.061.
To N54K belongs 0.049 ± 0.043; to N54Q, -0.006 ± 0.042; to K24P, -0.096 ± 0.072.
In the case of K24C, the abundance fitness came to 0.011 ± 0.065.
In the case of K24Q, the abundance fitness is 0.044 ± 0.06.
As to K24L, the abundance fitness was -0.134 ± 0.045.
On to A10P, for which the abundance fitness is 0.004 ± 0.049.
For A10Q the value was -0.111 ± 0.05; for A10W, -0.625 ± 0.074.
Turning to A10H, the abundance fitness is -0.235 ± 0.072.
For A10E the value was -0.287 ± 0.053.
On to A10C, for which the abundance fitness is -0.147 ± 0.056.
In the case of A10G, the abundance fitness is -0.122 ± 0.042.
For the variant A10N, the abundance fitness is -0.274 ± 0.07.
With A10V, the abundance fitness is -0.305 ± 0.047.
To C39E belongs -0.641 ± 0.078; to C39W, -0.992 ± 0.12; to V5T, -0.742 ± 0.11.
In the case of V5P, the abundance fitness was -1.1 ± 0.23.
As for V5N, the abundance fitness is -0.703 ± 0.23.
For Q65S the value was -0.009 ± 0.038; for Q65V, -0.029 ± 0.038; for Q65M, -0.057 ± 0.043.
Turning to Q65E, the abundance fitness was -0.06 ± 0.061.
For the variant R59Q, the abundance fitness was -0.259 ± 0.048.
Take R59F: the abundance fitness is -0.513 ± 0.12.
In the case of R59M, the abundance fitness is -0.171 ± 0.054.
Regarding R59I, the abundance fitness is -0.694 ± 0.18.
Take R59G: the abundance fitness is -0.825 ± 0.076.
R59S: the abundance fitness is -0.81 ± 0.1.
Regarding C63T, the abundance fitness is -0.909 ± 0.13.
For the variant C63H, the abundance fitness is -0.813 ± 0.25.
For C63Y, the abundance fitness was -0.85 ± 0.22.
As to C63D, the abundance fitness is -0.915 ± 0.24.
For C63Q, the abundance fitness is -0.661 ± 0.094.
Consider H35R, for which the abundance fitness is -0.044 ± 0.033.
For V17E the value was -0.389 ± 0.062; for V17F, -0.355 ± 0.084; for V17K, -0.013 ± 0.38.
Consider V17G, for which the abundance fitness is -0.176 ± 0.036.
To V17Y belongs -0.451 ± 0.1.
On to V17S, for which the abundance fitness is -0.172 ± 0.052.
V17H: the abundance fitness was -0.371 ± 0.098.
On to N43C, for which the abundance fitness was -0.193 ± 0.059.
In the case of N43F, the abundance fitness was -0.02 ± 0.06.
For the variant N43P, the abundance fitness is -0.575 ± 0.075.
To N43Q belongs 0.028 ± 0.05.
To N43A belongs -0.027 ± 0.034; to N43K, 0.013 ± 0.041.
Turning to D44E, the abundance fitness came out at 0.032 ± 0.044.
To D44R belongs -0.088 ± 0.037; to D44G, -0.145 ± 0.036.
As for L70F, the abundance fitness is -0.08 ± 0.065.
L70T: the abundance fitness was -0.03 ± 0.045.
As to L70Q, the abundance fitness is -0.02 ± 0.053.
For L70I the value was -0.018 ± 0.083; for L70S, 0.052 ± 0.039.
Consider L70N, for which the abundance fitness is -0.011 ± 0.076.
For the variant L70M, the abundance fitness came out at 0.052 ± 0.054.
On to Y37M, for which the abundance fitness worked out at 0.013 ± 0.062.
Consider Y37C, for which the abundance fitness is -0.299 ± 0.12.
With Y37K, the abundance fitness was -0.122 ± 0.061.
For Y37E the value was -0.107 ± 0.052; for K62V, -0.119 ± 0.034.
On to K62Y, for which the abundance fitness is -0.187 ± 0.082.
For the variant K62F, the abundance fitness is -0.158 ± 0.073.
In the case of K62R, the abundance fitness is -0.05 ± 0.031.
Turning to Y15Q, the abundance fitness was -0.08 ± 0.046.
Regarding Y15R, the abundance fitness is -0.152 ± 0.036.
For the variant Y15M, the abundance fitness is -0.009 ± 0.045.
In the case of Y15T, the abundance fitness is -0.05 ± 0.046.
G16W: the abundance fitness is -0.83 ± 0.13.
With G16Q, the abundance fitness was -0.225 ± 0.049.
As to C45T, the abundance fitness was -0.99 ± 0.27.
To C45P belongs -1.02 ± 0.16.
In the case of C45A, the abundance fitness was -0.797 ± 0.1.
To C45K belongs -1.27 ± 0.41.
As for A40C, the abundance fitness was -0.137 ± 0.076.
To A40E belongs -0.048 ± 0.039; to A30L, -0.32 ± 0.043; to A30E, -0.142 ± 0.043.
In the case of A30P, the abundance fitness is -0.907 ± 0.19.
To A30D belongs -0.701 ± 0.2; to R42Y, -0.065 ± 0.17.
To R42S belongs 0.001 ± 0.035; to K1H, -0.304 ± 0.12; to K1G, -0.123 ± 0.047.
With K1Q, the abundance fitness was -0.293 ± 0.064.
Turning to K1C, the abundance fitness was -0.14 ± 0.1.
To K1R belongs -0.141 ± 0.043.
For the variant A57N, the abundance fitness was -0.266 ± 0.085.
A57V: the abundance fitness was -0.656 ± 0.059.
For A57W the value was -0.669 ± 0.063; for A57S, -0.02 ± 0.035; for L2F, 0.069 ± 0.058.
On to L2D, for which the abundance fitness was -0.045 ± 0.066.
For L2H, the abundance fitness was -0.002 ± 0.091.
With L2E, the abundance fitness is 0.049 ± 0.037.
Turning to L2V, the abundance fitness was -0.02 ± 0.031.
Turning to L2N, the abundance fitness is 0.092 ± 0.14.
With I46A, the abundance fitness came to 0.031 ± 0.034.
Turning to I46E, the abundance fitness was -0.009 ± 0.037.
On to I46L, for which the abundance fitness was -0.039 ± 0.031.
As for G12H, the abundance fitness was -0.096 ± 0.11.
As to G12V, the abundance fitness is -0.166 ± 0.035.
On to G12T, for which the abundance fitness was -0.069 ± 0.048.
For G12D, the abundance fitness was -0.003 ± 0.058.
Take H14R: the abundance fitness was -0.137 ± 0.032.
As to H14Y, the abundance fitness is -0.068 ± 0.075.
For the variant H14Q, the abundance fitness is -0.077 ± 0.048.
Turning to H14K, the abundance fitness was -0.096 ± 0.049.
V31F: the abundance fitness is -0.007 ± 0.058.
In the case of V31Q, the abundance fitness was -0.017 ± 0.048.
Turning to V31G, the abundance fitness is -0.036 ± 0.035.
For V31C, the abundance fitness is -0.016 ± 0.054.
In the case of V31D, the abundance fitness was -0.219 ± 0.084.
In the case of E32T, the abundance fitness was -0.007 ± 0.041.
To E32Y belongs -0.131 ± 0.065; to E32L, -0.073 ± 0.032; to A72N, -0.037 ± 0.072.
For A72R, the abundance fitness was -0.054 ± 0.032.
To A72E belongs 0.047 ± 0.041.
To A72M belongs 0.005 ± 0.053; to A72H, -0.044 ± 0.061; to K28T, 0.001 ± 0.042.
In the case of K28A, the abundance fitness was -0.056 ± 0.036.
As for K28M, the abundance fitness was -0.002 ± 0.049.
To D48T belongs -0.045 ± 0.046; to D48C, -0.529 ± 0.11; to D48R, -0.536 ± 0.04.
For the variant D48I, the abundance fitness is -0.579 ± 0.17.
For the variant D48E, the abundance fitness was -0.072 ± 0.043.
Consider D48H, for which the abundance fitness was -0.449 ± 0.14.
